Holding throughout (test): peptide or protein array; SH2/PTB proteins spotted on aldehyde slides, rhodamine peptide titrated in buffer B (20 mM HEPES, 100 mM KCl, 0.1% Tween-20, 5 mM DTT, pH 7.8), 1 h at room temperature; replicate assays
What all share (conditions): both partners purified

The target in assay [1] is T1, NCK1 SH2 domain (human, UniProt P16333 282-376).
T1 construct: NCK1, human; source: bacterial expression, purified

In assay [2] the target is T2, PLCG2 N-terminal SH2 domain (human).
T2 construct: PLCG2, human; source: bacterial expression, purified
T2 sequence (P16885 whole entry, looked up): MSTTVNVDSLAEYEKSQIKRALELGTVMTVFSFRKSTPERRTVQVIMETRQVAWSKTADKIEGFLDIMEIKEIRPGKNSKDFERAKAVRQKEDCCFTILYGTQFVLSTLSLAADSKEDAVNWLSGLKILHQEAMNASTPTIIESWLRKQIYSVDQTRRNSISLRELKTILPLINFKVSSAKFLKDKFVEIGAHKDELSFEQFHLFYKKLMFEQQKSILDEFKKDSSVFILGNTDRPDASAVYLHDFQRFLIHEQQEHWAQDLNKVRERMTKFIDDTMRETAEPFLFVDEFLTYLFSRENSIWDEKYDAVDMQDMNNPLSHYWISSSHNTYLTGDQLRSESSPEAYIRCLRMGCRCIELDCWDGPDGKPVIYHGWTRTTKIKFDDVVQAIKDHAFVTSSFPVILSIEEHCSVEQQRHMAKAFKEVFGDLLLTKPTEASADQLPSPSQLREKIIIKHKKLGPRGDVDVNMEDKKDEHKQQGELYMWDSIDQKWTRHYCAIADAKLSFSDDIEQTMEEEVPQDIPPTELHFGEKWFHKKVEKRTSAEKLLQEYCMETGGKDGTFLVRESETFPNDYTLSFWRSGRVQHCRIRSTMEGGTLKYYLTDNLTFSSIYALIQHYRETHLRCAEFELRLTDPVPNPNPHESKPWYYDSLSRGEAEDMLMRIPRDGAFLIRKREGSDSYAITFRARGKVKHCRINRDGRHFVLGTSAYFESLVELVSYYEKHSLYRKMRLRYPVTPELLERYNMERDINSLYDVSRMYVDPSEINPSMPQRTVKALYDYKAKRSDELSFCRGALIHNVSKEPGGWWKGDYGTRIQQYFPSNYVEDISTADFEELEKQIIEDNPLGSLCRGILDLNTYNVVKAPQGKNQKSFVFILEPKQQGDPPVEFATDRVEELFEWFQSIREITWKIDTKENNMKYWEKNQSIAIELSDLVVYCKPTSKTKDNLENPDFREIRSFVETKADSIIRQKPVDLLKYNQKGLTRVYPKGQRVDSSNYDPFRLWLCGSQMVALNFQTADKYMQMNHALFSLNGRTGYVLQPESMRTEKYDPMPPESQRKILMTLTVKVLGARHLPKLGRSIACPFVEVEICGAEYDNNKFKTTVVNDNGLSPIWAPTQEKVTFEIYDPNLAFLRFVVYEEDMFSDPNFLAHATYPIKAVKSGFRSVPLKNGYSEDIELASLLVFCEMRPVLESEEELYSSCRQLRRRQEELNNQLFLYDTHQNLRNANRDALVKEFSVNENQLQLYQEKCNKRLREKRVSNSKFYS

Assay [3] concerns the target T3, VAV1 SH2 domain (human, UniProt P15498 671-765).
T3 construct: VAV1, human; source: bacterial expression, purified
T3 sequence (looked up): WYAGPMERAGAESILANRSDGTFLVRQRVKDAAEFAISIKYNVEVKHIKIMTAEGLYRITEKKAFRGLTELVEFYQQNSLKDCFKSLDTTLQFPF

Assay [4] concerns the target T4, ZAP70 C-terminal SH2 domain (human, UniProt P43403 1-619).
T4 construct: ZAP70, human; source: bacterial expression, purified
T4 sequence (looked up): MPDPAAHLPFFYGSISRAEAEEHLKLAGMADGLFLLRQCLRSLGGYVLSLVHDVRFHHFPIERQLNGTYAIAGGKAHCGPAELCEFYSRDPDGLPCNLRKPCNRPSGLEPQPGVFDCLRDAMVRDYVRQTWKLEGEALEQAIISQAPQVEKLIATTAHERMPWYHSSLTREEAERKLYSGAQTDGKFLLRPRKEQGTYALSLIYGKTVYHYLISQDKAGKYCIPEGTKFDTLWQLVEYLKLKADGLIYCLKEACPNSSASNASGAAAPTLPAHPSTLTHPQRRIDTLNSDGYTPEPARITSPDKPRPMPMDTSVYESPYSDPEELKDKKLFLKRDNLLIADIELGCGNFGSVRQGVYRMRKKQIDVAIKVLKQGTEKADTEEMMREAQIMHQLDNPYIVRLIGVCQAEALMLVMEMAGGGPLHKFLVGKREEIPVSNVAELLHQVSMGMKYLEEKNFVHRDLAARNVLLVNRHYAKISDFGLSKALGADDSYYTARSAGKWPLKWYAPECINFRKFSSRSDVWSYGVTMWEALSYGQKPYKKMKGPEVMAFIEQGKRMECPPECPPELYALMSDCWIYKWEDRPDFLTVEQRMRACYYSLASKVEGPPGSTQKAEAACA

For assay [5], the target named is T5, CRK SH2 domain (human, UniProt P46108 13-118).
T5 construct: CRK, human; source: bacterial expression, purified
T5 sequence (P46108 13-118): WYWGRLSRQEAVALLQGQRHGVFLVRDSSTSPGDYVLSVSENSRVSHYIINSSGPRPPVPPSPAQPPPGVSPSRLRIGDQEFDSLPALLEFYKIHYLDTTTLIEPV

Assay [6] concerns the target T6, SYK N-terminal SH2 domain (human).
T6 construct: SYK, human; source: bacterial expression, purified

Several values for one entry are separate records, joined by “and”; a condition that tells them apart may be missing. Identical values can stand only once. Non-standard residues stand in square brackets, D forms with d. No end group written: not given here. pY = N[C@@H](Cc1ccc(OP(=O)(O)O)cc1)C(=O)O; Rhodamine = not defined here

As a reminder, the Kd is the concentration at which binding is half-saturated. A high value points to lower affinity.

With Rhodamine-ETDG[pY]VAPLTCSD (reading uncertain) [ErbB2 pY1127 phosphopeptide, rhodamine-labelled, for protein microarrays], the Kd was 6.85 µM in assay [1]; 4.16 µM in assay [2]; 0.186 µM and 0.0916 µM in assay [3]; 2.2 µM and 3.21 µM in assay [4]; 7.71 µM in assay [5]; 3.21 µM and 2.33 µM in assay [6].

The values above are taken from article PMC3433420, “Comprehensive Binary Interaction Mapping of SH2 Domains via Fluorescence Polarization Reveals Novel Functional Diversification of ErbB Receptors” (PLoS ONE, 2012).
